The chains are these.
B1: FLAG-tagged hAng2 (ligand)
chain: YNNFRKSMDSIGKKQYQVQHGSCSYTFLLPEMDNCRSSSSPYVSNAVQRDAPLEYDDSVQRLQVLENIMENNTQWLMKLENYIQDNMKKEMVEIQQNAVQNQTAVMIEIGTNLLNQTAEQTRKLTDVEAQVLNQTTRLELQLLEHSLSTNKLEKQILDQTSEINKLQDKNSFLEKKVLAMEDKHIIQLQSIKEEKDQLQVLVSKQNSIIEELEKKIVTATVNNSVLQKQQHDLMETVNNLLTMMSTSNSAKDPTVAKEEQISFRDCAEVFKSGHTTNGIYTLTFPNSTEEIKAYCDMEAGGGGWTIIQRREDGSVDFQRTWKEYKVGFGNPSGEYWLGNEFVSQLTNQQRYVLKIHLKDWEGNEAYSLYEHFYLSSEELNYRIHLKGLTGTAGKISSISQPGNDFSTKDGDNDKCICKCSQMLTGGWWFDACGPSNLNGMYYPQRQNTNKFNGIKWYYWKGSGYSLKATTMMIRPADF
notes: not shown: FLAG tag
B2: Ang2 protein (R&D systems) (ligand)
chain: B1 chain
notes: It may be the same product as the C-His hAng2 of the SPR; also called human Ang2 protein (R&D systems; 623-AN-025/CF)
B3: 4H10 (antibody, V domains shown)
VH: EVQLLESGGGLVQPGGSLRLSCAASGFTFSSYDMSWVRQAPGKGLEWVSLISPDSSSIYYADSVKGRFTISRDNSKNTLYLQMNSLRAEDTAVYYCAKDLISFWRGGFDYWGQGTLVTVSS
VL: QSVLTQPPSASGTPGQRVTISCSGSSSNIGSNYVNWYQQLPGTAPKLLIYADSNRPSGVPDRFSGSKSGTSASLAISGLRSEDEADYYCGSWDYSLSGYVFGGGTKLTVLG
notes: also called antibody 4H10

Experiment [1] concerns the target T1, hTie2-Fc (R&D Systems) (human, UniProt Q02763 23-745).
T1 construct: also called hTie-2/Fc fusion protein; not shown: Fc of human IgG1
Put plainly: competition ELISA: FLAG-tagged hAng2 (400 ng/ml) bound to coated hTie2-Fc in the presence of titrated 10D6, detected with anti-FLAG-HRP. The protocol:
(§1) More specifically, MaxiSorp™ flat-bottom plate (Nunc) of 96-well was coated with hTie2-Fc (R&D Systems) which is a protein bound with 4 ug (microgram)/ml of Fc of human IgG1. After that, the plate was washed five times with 0.05% (v/v) Tween-20-containing PBS (phosphate buffer saline) and then blocked with 1% (v/v) BSA (bovine serum albumin; Sigma)-containing PBS at a room temperature for 2 hour.
(§2) For Ang2:Tie2 competition ELISA, each anti-Ang2 antibody obtained in Example 2 was placed at various concentrations of 400 nM to 0.001 nM into each well coated with the hTie-2/Fc fusion protein along with 1% (v/v) BSA and 400 ng/ml of a FLAG-tagged hAng2 and then, the plate was allowed to react at a room temperature for 2 hours and washed five times with PBST. After that, an anti-FLAG antibody (Sigma) conjugated with HRP diluted in 1% (v/v) BSA-containing PBS at a ratio of 1:5,000 (v/v) was added in an amount of 100 ul (microliter) to each well to react at a room temperature for 1 hour and then, the plate was washed five times with PBST. Lastly, 100 ul (microliter) of TMB substrate (Cell Signaling) was added to each well of the plate to induce color development for 3 min. and then, the reaction was ceased by the addition of 100 ul of Stop solution (Cell Signaling) and OD450 values were measured on a plate reader (Molecular Devices).

Experiment [2] addresses T1, hTie2-Fc (R&D Systems). Description: ELISA, coated Tie2-Fc 4 ug/ml, Ang2 0.25 ug/ml and 10D6 2 ug/ml added, anti-mouse IgG-HRP, OD450. The protocol:
A 96-well MaxiSorp™ flat-bottom plate (Nunc) was coated with 4 ug/ml of Tie2-Fc (R&D systems) or BSA (Sigma). Then, the plate was washed five times with 0.05% (v/v) Tween-20-containing PBS (Phosphate Buffer Saline) and blocked with 1% (v/v) BSA (Bovine serum albumin; Sigma)-containing PBS at a room temperature for 2 hours. 0.25 ug/ml of Ang2 and 2 ug/ml of antibody 10D6 were added to each well of the plate, which was allowed to react at a room temperature for 2 hours and then washed five times with PBST. After that, an anti-mouse IgG antibody (Sigma) conjugated with HRP diluted in 1% (v/v) BSA-containing PBS at a ratio of 1:5,000 (v/v) was added in an amount of 100 ul to each well to react at a room temperature for 1 hour and then, the plate was washed five times with PBST. Lastly, 100 ul (microliter) of TMB substrate (Cell Signaling) was added to each well of the plate to induce color development for 3 min. and then, the reaction was ceased by the addition of 100 ul of Stop solution (Cell Signaling) and OD450 values were measured on a plate reader (Molecular Devices).
On the technique in general: ELISA stands for enzyme-linked immunosorbent assay.

For the experiment “FLAG-tagged hAng2”, the target named is B1. Put plainly: competition ELISA: antibody titrated with FLAG-tagged hAng2 (400 ng/ml) on coated hTie2-Fc, bound Ang2 detected with anti-FLAG-HRP; blocked ligand pair Ang2-Tie2. The protocol: as §1
as §2, with “Devices). […]” for “Devices).”

Data on three molecules can be found in US20150079112A1 (SAMSUNG ELECTRONICS, published 2015).

T1 sequence (Q02763 23-745 limits assumed): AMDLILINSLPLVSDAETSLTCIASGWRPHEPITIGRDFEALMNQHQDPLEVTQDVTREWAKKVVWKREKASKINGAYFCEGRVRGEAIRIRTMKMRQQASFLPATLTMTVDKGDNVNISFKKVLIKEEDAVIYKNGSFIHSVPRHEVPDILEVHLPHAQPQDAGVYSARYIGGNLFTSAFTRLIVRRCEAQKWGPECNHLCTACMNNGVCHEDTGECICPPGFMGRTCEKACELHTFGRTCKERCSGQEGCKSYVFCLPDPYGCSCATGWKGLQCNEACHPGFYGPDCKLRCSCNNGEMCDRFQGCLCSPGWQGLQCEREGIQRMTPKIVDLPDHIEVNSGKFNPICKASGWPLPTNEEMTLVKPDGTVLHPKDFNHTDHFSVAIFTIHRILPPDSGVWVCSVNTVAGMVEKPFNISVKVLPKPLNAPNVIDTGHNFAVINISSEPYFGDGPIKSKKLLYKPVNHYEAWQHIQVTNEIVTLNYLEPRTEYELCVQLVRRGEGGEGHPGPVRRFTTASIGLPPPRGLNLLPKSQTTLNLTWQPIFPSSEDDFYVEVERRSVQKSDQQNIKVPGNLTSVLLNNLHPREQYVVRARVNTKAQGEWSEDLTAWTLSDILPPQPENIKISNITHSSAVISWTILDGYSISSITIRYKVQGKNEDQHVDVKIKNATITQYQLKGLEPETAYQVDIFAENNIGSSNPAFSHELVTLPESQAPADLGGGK

Consider B1, for which, in the experiment with hTie2-Fc (R&D Systems) [1], the binding result is listed as “binds”.

With B2, the binding result with hTie2-Fc (R&D Systems) [2] is recorded as “binds”.

On to B3, for which the “IC50 (read off the curve)” value in the experiment with FLAG-tagged hAng2 is roughly 200 pM.
